# Laboratory results published in patent publication US12458703B2, “Responsive elastic polymers and methods of making and using same” (Purdue Research Foundation, priority 2016, dated 2025).
# Test: Intravital fluorescence imaging of BSA-AF release in the knee joint after intra-articular injection
# Type: in vivo
# Conditions: total radiant efficiency from knee joint, released from HA-g-PNIPAm hydrogels
substance,measurement,setting,value
Alexa Fluor 680 conjugated BSA: Alexa Fluor 680 conjugated BSA released from HA-g-PNIPAm hydrogels,time detected in the knee joints,,more than 24 hours
same,time of maximum concentration post intra-articular injection,n=4,6 to 12 h
